Data taken from the supplement of paper PMC9732359.
± gives the uncertainty stated by the source.

Assay: protein stability index of a GFP-peptide fusion (yeast GPS) (PSI 1-4); higher = more stable; sorted into four equal gates, so the index is relative within each strain
Procedure, shortened: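 The protein stability index of a peptide was calculated by multiplying its read frequency in each gate by that gate's number and adding the products. The peptides were tiled 17-residue stretches of yeast proteins, fused downstream of GFP on a Cherry-expressing plasmid and carried in yeast as a pooled library. Mid-log cultures in leucine-free medium were sorted into four equal gates by GFP/Cherry ratio, and each gate's plasmids were PCR-amplified and Illumina-sequenced.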

Row | Sequence | protein stability index (doa10∆) | protein stability index (pdr5∆) | protein stability index (san1∆) | protein stability index (ubr1∆)
1 | LRRTTQRVFDETEQEYS [YDL116W/NUP84] | 3.21 ± 0.064 | 3.03 ± 0.046 | 3.2 ± 0.061 | 3.19 ± 0.043
2 | LRTEYGWDSLASRNVWS [SNU114] | 2.85 ± 0.099 | 3.11 ± 0.12 | 3.4 ± 0.099 | 3.38 ± 0.076
3 | LRYVKQIEGPFLIIVPK [ISW2] | 2.15 ± 0.081 | 2.3 ± 0.059 | 2.29 ± 0.065 | 2.34 ± 0.045
4 | LSALDHYERTQTKENKR [RPN8] | 2.91 ± 0.077 | 2.82 ± 0.087 | 2.71 ± 0.073 | 2.68 ± 0.057
5 | LSEDKKKLDYVLALKVE [RPS9A] | 1.31 ± 0.17 | 2.22 ± 0.23 | 1.41 ± 0.16 | 1.49 ± 0.29
6 | LSETNGLHKFVKGDLLQ [PRE10] | – | 3.28 ± 0.23 | – | 3.48 ± 0.11
7 | LSIPGKSTPEGTLWAHV [SNU114] | 2.91 ± 0.065 | 3.09 ± 0.064 | 2.9 ± 0.059 | 3.03 ± 0.04
8 | LSKEVPFSYLIDETMMD [SRB5] | 2.03 ± 0.12 | 2.36 ± 0.066 | 2.22 ± 0.13 | 2.55 ± 0.048
9 | LSLEEVEGHLFEIIDEA [FAS1] | 3.01 ± 0.11 | 3.29 ± 0.1 | 3.09 ± 0.063 | 3.07 ± 0.069
10 | LSLNLGDYGSAKCNSLL [POP5] | 2.47 ± 0.061 | 2.94 ± 0.077 | 2.57 ± 0.081 | 2.46 ± 0.093
11 | LSNCLANARDFGEWAGM [BRR2] | 2.35 ± 0.089 | 2.41 ± 0.095 | 2.28 ± 0.17 | 2.45 ± 0.07
12 | LSRGYTCPGLSLTDVAF [ECM29] | 3.24 ± 0.12 | 3.19 ± 0.084 | 2.29 ± 0.11 | 2.68 ± 0.12
13 | LSRLQKSGRINGFHGRL [SMC4] | 3.26 ± 0.15 | 3.57 ± 0.15 | 3.29 ± 0.081 | 3.19 ± 0.064
14 | LSRYVKWPEYVRLQRQK [RPL8B] | – | 2.71 ± 0.24 | – | –
15 | LSSLKSFAIYSSTIDAP [SRB8] | 1.71 ± 0.038 | 1.57 ± 0.034 | 1.83 ± 0.064 | 1.73 ± 0.038
16 | LSSNITFDGKPTATPSP [YMR153W/NUP53] | 2.91 ± 0.057 | 3.03 ± 0.058 | 3 ± 0.043 | 2.91 ± 0.046
17 | LSSVALRSDFYILANHY [YJL039C/NUP192] | 2.06 ± 0.15 | 2.28 ± 0.13 | 1.59 ± 0.24 | 2 ± 0.098
18 | LSTLEPSTSITLAERQQ [RPN9] | 2.9 ± 0.055 | 2.91 ± 0.058 | 2.58 ± 0.062 | 2.86 ± 0.036
19 | LSWCPSRFSPEKLAVSA [YGL100W/SEH1] | 2.48 ± 0.078 | 2.57 ± 0.11 | 2.81 ± 0.14 | –
20 | LTIGVKFFMKHGLILEL [SRB5] | 1.71 ± 0.05 | 1.62 ± 0.052 | 1.65 ± 0.062 | 1.94 ± 0.033
21 | LTITKAAGANVDNVWAD [RPP1B] | 2.63 ± 0.089 | 2.26 ± 0.063 | 2.78 ± 0.15 | 2.85 ± 0.059
22 | LTKAAIVQIDATPFRQW [RPS8A] | 2.132 ± 0.016 | 2.453 ± 0.017 | 2.347 ± 0.021 | 2.362 ± 0.014
23 | LTKKEKKEANLFPEQQN [RPL6A] | 3.08 ± 0.072 | 3.2 ± 0.072 | 3.25 ± 0.06 | 3.16 ± 0.048
24 | LTKKEKKEANLFPEQQT [RPL6B] | 3.08 ± 0.073 | 3.21 ± 0.072 | 3.25 ± 0.06 | 3.15 ± 0.049
25 | LTKLNEDDLVGVVQMVT [TAF14] | 2.89 ± 0.086 | 3.18 ± 0.074 | 3.02 ± 0.065 | 2.98 ± 0.063
26 | LTMANLPSWSLGKWYSK [ARP7] | 3.17 ± 0.15 | 3.28 ± 0.11 | 2.88 ± 0.17 | 2.85 ± 0.19
